Data set [1] addresses T1, phage isolate 5-H11 display polypeptide.
T1 chain: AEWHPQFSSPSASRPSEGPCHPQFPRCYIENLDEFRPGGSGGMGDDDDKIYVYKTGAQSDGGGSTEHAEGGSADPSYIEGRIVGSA

Data set [2] concerns the target T2, DINDDRSLF
T2 chain: DINDDRSLF

In data set [3] the target is T3, … (negative control test peptide).
T3 chain: AVLSNVMFI

The target in data set [4] is T4, GNYTDRMFI
T4 chain: GNYTDRMFI

Data set [5] deals with T5, GNYTDRYFI
T5 chain: GNYTDRYFI

Data set [6] deals with T6, phage isolate 5-A08 display polypeptide.
T6 chain: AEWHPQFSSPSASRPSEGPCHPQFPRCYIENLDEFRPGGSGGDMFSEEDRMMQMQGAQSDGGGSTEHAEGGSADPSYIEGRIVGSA

For data set [7], the target named is T7, phage isolate 5-H04 display polypeptide.
T7 chain: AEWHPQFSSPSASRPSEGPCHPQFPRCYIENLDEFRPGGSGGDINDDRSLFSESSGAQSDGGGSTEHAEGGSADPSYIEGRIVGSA

The target of data set [8] is T8, GDDDDKIYV (positive control test peptide).
T8 chain: GDDDDKIYV

In data set [9] the target is 17 isolates from rounds 2-5 of screening exhibiting the Asp-Arg motif before the scissile bond (P2-P1).
Data set [10] deals with T9, phage isolate 5-B05 display polypeptide.
T9 chain: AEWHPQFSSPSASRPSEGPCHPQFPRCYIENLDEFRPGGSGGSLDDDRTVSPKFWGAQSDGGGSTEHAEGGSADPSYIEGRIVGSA

Data set [11] concerns the target T10, NKAKDRMFI
T10 chain: NKAKDRMFI

The target of data set [12] is T11, GDDDDK-β-naphthylamine.
T11 chain: GDDDDK

Data set [13] deals with T12, GNYTDRRFI
T12 chain: GNYTDRRFI

B1: recombinant light chain enterokinase (Novagen, Madison, Wis.) (protein)
chain: IVGGSDSREGAWPWVVALYFDDQQVCGASLVSRDWLVSAAHCVYGRNMEPSKWKAVLGLHMASNLTSPQIETRLIDQIVINPHYNKRRKNNDIAMMHLEMKVNYTDYIQPICLPEENQVFPPGRICSIAGWGALIYQGSTADVLQEADVPLLSNEKCQQQMPEYNITENMVCAGYEAGGVDSCQGDSGGPLMCQENNRWLLAGVTSFGYQCALPNRPGVYARVPRFTEWIQSFLH
B1: the “enterokinase cleavage rate (phage ELISA, release from streptavidin)” value is “the cleavage rate for the (Asp)4-Lys-containing recognition sequence 5-H11 (SEQ ID NO:194) was slower than for at least three of the other isolates” in data set [1]; “the cleavage rate for ... 5-H11 (SEQ ID NO:194) was slower than for at least three of the other isolates, i.e., 5-A08 (SEQ ID NO:137), 5-B05 (SEQ ID NO:145) and 5-H04 (SEQ ID NO:188)” in data set [6]; “isolate 5-H04 (SEQ ID NO:188) shown in Table 5 was the most readily cut” in data set [7]; “the cleavage rate for ... 5-H11 (SEQ ID NO:194) was slower than for at least three of the other isolates, i.e., 5-A08 (SEQ ID NO:137), 5-B05 (SEQ ID NO:145) and 5-H04 (SEQ ID NO:188)” in [10]. For the same protein, the Cleavage Rate in [2] is 1.43 nmol/min; in data set [4], 0.81 nmol/min; in [5], 0.24 nmol/min; in data set [8], 0.34 nmol/min; in data set [11], 0.26 nmol/min; in data set [12] it was 0.46 nmol/min. Moreover, in data set [13], the Cleavage Rate turned out to be 0.18 nmol/min. For the same protein, the rate relative to standard substrate was 3.1 in data set [2]; 1.8 in data set [4]; 0.5 in [5]; 0.7 in data set [8]; 0.6 in data set [11]; 1 in data set [12]. In data set [13], this protein had a rate relative to standard substrate of 0.4. Also, the values for the ratio (Va/Vb) against reference peptide GDDDDK-βNA (relative kcat/Km) in data set [2], in data set [4] and in [8] were 30, 3.5 and 1, respectively. In addition, in [3], the “enterokinase cleavage (HPLC, mass spectroscopy)” value is on record as “No cleavage occurred with the negative control peptide (SEQ ID NO:198)”. The “cleavage at 300 nM enterokinase (phage ELISA)” value in data set [9] is listed as “All of the phage isolates were readily cleaved when the enterokinase concentration was raised to 300 nM”.

Source of the values: US20020192789.
